In this series the target is ABCA1 (Homo sapiens, UniProt O95477). Briefly: ABCA1-mediated cholesterol efflux from BHK-ABCA1 cells, acceptor in media. Details: expressed in transfected cells; host or cells: BHK cells, stably transfected, induced with 10 nM mifepristone (gift of J. F. Oram). The conditions noted are these: BHK-ABCA1 induced with mifepristone, 4 h, 37°C, mean ± SD. In kind it is cell-based. The text has this: BHK cells stably transfected with an ABCA1 or ABCG1 expression vector that is mifepristone inducible and cells transfected with the same vector lacking the ABCA1 cDNA insert (mutant or mock-transfected) were generously provided by the late Dr. John F. Oram from the Department of Medicine, University of Washington, and were characterized and cultured as previously described. […] Mouse-derived peritoneal macrophages J774 were purchased from American Tissue Culture Collection (ATCC TIB-67, Cederlane, Burlington, Canada). For induction of ABCA1, BHK cells were incubated for 18–20 h with 10 nM mifepristone. J774 macrophages were stimulated with 0.3 mM Cpt-cAMP 8-(4-Chlorophenylthio)-cyclic adenosine monophosphate (Sigma). All BHK and J774 macrophages cells were respectively grown and maintained in DMEM and RPMI containing 10% fetal serum until experimental treatment. Studies were carried out on standard 24-well plates (150,000 cells/well) unless stated otherwise
We investigated cholesterol efflux from BHK cells after adding lipid free CS-6253 to media cell culture or to human EDTA-plasma which had been stored at -80°C. BHK overexpressing human ABCA1 were labeled with 2 μCi/ml ^3H-free cholesterol (Perkin Elmer, Norwalk, Connecticut) for 24 h. Afterward, BHK-ABCA1 were stimulated with 10 nmol/l mifepristone for 18–20 h (13). Cells were incubated with various doses of acceptor in media for 4 h at 37°C. Alternatively, plasma samples were first pre-incubated for 5 min at 37°C in plasma at mole ratios (10:1 or 1:1 relative to plasma apo A-I). To obtain the HDL fraction, apoB lipoproteins were precipitated from plasma by polyethylene glycol (PEG). […]
Fig 2 Effect of CS-6253 treatment on cholesterol efflux. […] Cholesterol efflux from either ABCA1 cells or control cells to apo A-I (closed circles), and CS-6253 (closed triangles) was determined at the indicated time points. […] ABCA1 was detected from THP-1 foam cells lysis at 4°C with lysis buffer containing 0.5% n-dodecylmaltoside in the presence of a protease inhibitor mixture followed by low speed centrifugation to remove cell debris. Protein concentration was determined by standard assay (Bio-Rad). […] After electrophoresis, ABCA1 was detected by an anti-ABCA1 antibody. […] E. Quantification of FC and CE in foam cells after interaction with CS-6253 and apoA-I. After a period of 4h cholesterol efflux, THP-1 foam cell lipids were extracted with hexane: isopropanol (3v/2v) as under ‘‘Material and Methods’. 3[H]-FC and 3[H]-CE were separated by TLC and located by exposure to iodine vapor, and were scraped off into liquid scintillating vials and assayed for radioactivity. […]

ABCA1, sequence (O95477 whole entry): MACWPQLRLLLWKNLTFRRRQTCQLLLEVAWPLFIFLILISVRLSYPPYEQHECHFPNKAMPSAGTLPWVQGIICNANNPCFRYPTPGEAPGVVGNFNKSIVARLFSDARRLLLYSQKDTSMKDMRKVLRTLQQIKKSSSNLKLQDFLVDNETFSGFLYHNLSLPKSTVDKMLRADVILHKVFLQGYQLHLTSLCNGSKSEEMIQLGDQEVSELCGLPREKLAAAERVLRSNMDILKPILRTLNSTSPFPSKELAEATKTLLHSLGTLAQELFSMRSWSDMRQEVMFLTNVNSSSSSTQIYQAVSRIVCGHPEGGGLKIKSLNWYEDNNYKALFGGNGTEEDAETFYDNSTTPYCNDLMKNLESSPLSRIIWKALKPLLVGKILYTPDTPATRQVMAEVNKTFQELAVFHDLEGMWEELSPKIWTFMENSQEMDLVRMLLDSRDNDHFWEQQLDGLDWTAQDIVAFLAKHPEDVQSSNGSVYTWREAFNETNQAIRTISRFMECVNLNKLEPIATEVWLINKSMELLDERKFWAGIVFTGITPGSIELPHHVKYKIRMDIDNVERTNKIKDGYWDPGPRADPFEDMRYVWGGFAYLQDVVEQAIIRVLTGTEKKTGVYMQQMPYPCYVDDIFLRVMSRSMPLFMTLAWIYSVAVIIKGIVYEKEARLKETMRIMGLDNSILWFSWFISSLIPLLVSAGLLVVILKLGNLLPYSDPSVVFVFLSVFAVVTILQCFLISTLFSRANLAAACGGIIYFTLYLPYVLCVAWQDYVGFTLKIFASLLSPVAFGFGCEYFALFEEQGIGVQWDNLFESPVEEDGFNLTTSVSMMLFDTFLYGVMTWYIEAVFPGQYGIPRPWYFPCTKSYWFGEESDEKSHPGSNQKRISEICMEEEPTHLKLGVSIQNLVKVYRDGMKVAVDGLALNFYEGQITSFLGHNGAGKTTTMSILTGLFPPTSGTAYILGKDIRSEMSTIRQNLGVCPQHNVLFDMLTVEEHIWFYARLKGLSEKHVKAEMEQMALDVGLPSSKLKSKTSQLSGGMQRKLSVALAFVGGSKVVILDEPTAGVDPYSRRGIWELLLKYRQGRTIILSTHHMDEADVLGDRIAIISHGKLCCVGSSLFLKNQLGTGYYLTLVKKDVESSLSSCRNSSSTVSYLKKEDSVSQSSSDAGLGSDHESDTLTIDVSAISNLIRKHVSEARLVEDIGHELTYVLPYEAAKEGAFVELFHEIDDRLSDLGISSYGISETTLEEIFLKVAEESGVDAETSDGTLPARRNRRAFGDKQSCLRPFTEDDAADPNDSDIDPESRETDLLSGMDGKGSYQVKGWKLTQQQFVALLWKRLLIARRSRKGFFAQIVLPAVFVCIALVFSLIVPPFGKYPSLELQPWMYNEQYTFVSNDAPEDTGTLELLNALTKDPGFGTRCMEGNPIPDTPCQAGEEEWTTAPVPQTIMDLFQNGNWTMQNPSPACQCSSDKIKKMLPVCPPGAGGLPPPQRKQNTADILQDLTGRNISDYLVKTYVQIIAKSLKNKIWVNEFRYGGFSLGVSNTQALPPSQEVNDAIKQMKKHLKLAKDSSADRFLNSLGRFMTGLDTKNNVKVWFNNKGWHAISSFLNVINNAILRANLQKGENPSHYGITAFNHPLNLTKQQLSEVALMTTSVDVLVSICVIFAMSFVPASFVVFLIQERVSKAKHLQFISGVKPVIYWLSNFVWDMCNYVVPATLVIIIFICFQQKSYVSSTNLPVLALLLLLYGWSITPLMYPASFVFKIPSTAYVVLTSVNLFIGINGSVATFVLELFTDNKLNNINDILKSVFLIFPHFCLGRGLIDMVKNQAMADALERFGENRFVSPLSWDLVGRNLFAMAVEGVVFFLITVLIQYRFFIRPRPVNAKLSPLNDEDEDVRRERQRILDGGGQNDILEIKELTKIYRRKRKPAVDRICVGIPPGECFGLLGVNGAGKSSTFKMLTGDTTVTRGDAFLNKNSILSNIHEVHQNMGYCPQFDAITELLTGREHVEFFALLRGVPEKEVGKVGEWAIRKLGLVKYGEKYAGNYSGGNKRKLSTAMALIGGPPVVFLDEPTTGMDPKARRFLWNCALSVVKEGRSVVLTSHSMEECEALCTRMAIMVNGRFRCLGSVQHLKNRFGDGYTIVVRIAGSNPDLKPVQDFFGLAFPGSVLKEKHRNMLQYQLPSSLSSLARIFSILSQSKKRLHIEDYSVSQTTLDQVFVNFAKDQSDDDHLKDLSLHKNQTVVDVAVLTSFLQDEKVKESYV

Take apolipoprotein A-I [apo A-I]: the Michaelis-Menten constant (Km) worked out at 0.15 ± 0.02 µM and the “Km, cholesterol efflux” value was determined as 4.53 ± 0.67 µg/mL.

Values taken from PMC4514675, “Novel Apo E-Derived ABCA1 Agonist Peptide (CS-6253) Promotes Reverse Cholesterol Transport and Induces Formation of preβ-1 HDL In Vitro” (PLoS ONE, 2015).
